Laboratory results from the Immune Epitope Database (IEDB).

How the values were obtained:
Assay in all cases: IEDB peptide-MHC binding, purified MHC/competitive/radioactivity; ≥ and ≤ were set here for values at or beyond the usual limits of such assays
[1] = target: HLA-A*02:01
[2] = target: HLA-A*02:02
[3] = target: HLA-A*02:03
[4] = target: HLA-A*02:06
[5] = target: HLA-A*68:02
[6] = source organism: Hepacivirus hominis
[7] = source organism: Vaccinia virus WR
[8] = source organism: Mammarenavirus juninense
[9] = source organism: Mammarenavirus choriomeningitidis
[10] = source organism: Influenza A virus
[11] = source organism: Mammarenavirus brazilense
[12] = source organism: Mammarenavirus lassaense

HLFTSMFSL
IC50 [1, 6]: 0.049 µM
IC50 [2, 6]: 0.0052 µM
IC50 [3, 6]: 0.105 µM
IC50 [4, 6]: 0.627 µM
IC50 [5, 6]: 0.181 µM

FLFWFLKSGA
IC50 [1, 7]: 0.0019 µM
IC50 [2, 7]: 0.0011 µM
IC50 [3, 7]: 0.00058 µM
IC50 [4, 7]: 0.023 µM
IC50 [5, 7]: 0.038 µM

GLYIPGTSV
IC50 [1, 7]: 0.075 µM
IC50 [2, 7]: 0.111 µM
IC50 [3, 7]: 0.017 µM
IC50 [4, 7]: 1.74 µM
IC50 [5, 7]: 0.904 µM

KSGLFQFFV
IC50 [1, 8]: 0.017 µM
IC50 [2, 8]: 0.023 µM
IC50 [3, 8]: 1.56 µM
IC50 [4, 8]: 0.0081 µM
IC50 [5, 8]: 0.201 µM

FLAHLQWFA
IC50 ([1]; source organism: SARS-CoV1): 0.0001 µM
IC50 ([2]; source organism: SARS-CoV1): 0.0001 µM
IC50 ([3]; source organism: SARS-CoV1): 0.00021 µM
IC50 ([4]; source organism: SARS-CoV1): 0.00057 µM
IC50 ([5]; source organism: SARS-CoV1): 0.017 µM

RNHLRDLMGV
IC50 [1, 9]: 0.113 µM
IC50 [2, 9]: 0.428 µM
IC50 [3, 9]: 0.733 µM
IC50 [4, 9]: 0.107 µM
IC50 [5, 9]: 2.82 µM

FVDGVPFVV
IC50 ([1]; source organism: SARS-CoV1): 0.00097 µM
IC50 ([2]; source organism: SARS-CoV1): 0.0096 µM
IC50 ([3]; source organism: SARS-CoV1): 0.086 µM
IC50 ([4]; source organism: SARS-CoV1): 0.00091 µM
IC50 ([5]; source organism: SARS-CoV1): 0.168 µM

ITDNGPMPYM
IC50 [1, 7]: 0.473 µM
IC50 [2, 7]: 0.828 µM
IC50 [3, 7]: 1.18 µM
IC50 [4, 7]: 0.303 µM
IC50 [5, 7]: 0.473 µM

VVHGYFTEV
IC50 ([1]; source organism: SARS-CoV1): 0.015 µM
IC50 ([2]; source organism: SARS-CoV1): 0.017 µM
IC50 ([3]; source organism: SARS-CoV1): 0.0033 µM
IC50 ([4]; source organism: SARS-CoV1): 0.0026 µM
IC50 ([5]; source organism: SARS-CoV1): 0.024 µM

LAYYNSCMLT
IC50 [1, 7]: 0.485 µM
IC50 [2, 7]: 0.012 µM
IC50 [3, 7]: 0.016 µM
IC50 [4, 7]: 0.086 µM
IC50 [5, 7]: 0.0049 µM

NIVTFINDYA
IC50 [1, 7]: 0.827 µM
IC50 [2, 7]: 0.062 µM
IC50 [3, 7]: 0.245 µM
IC50 [4, 7]: 0.351 µM
IC50 [5, 7]: 0.082 µM

SIISLFYTFA
IC50 [1, 7]: 0.205 µM
IC50 [2, 7]: 0.111 µM
IC50 [3, 7]: 0.028 µM
IC50 [4, 7]: 0.094 µM
IC50 [5, 7]: 0.051 µM

MICCDSRIVV
IC50 [1, 7]: 0.025 µM
IC50 [2, 7]: 0.665 µM
IC50 [3, 7]: 0.392 µM
IC50 [4, 7]: 0.052 µM
IC50 [5, 7]: 0.027 µM

SCINRCFYV
IC50 [1, 10]: 0.295 µM
IC50 [2, 10]: 0.808 µM
IC50 [3, 10]: 0.947 µM
IC50 [4, 10]: 0.226 µM
IC50 [5, 10]: 1.07 µM

KAKQLCYCPA
IC50 [1, 7]: 1.5 µM
IC50 [2, 7]: 0.308 µM
IC50 [3, 7]: 0.188 µM
IC50 [4, 7]: 0.339 µM
IC50 [5, 7]: 2.46 µM

EAAAATCALV
IC50 [1, 7]: 0.318 µM
IC50 [2, 7]: 1.81 µM
IC50 [3, 7]: 0.248 µM
IC50 [4, 7]: 0.06 µM
IC50 [5, 7]: 0.00021 µM

TSLGLLYTV
IC50 [1, 11]: 0.115 µM
IC50 [2, 11]: 0.934 µM
IC50 [3, 11]: 0.405 µM
IC50 [4, 11]: 0.0042 µM
IC50 [5, 11]: 0.013 µM

SLEATFIDV
IC50 [1, 7]: 0.182 µM
IC50 [2, 7]: 0.035 µM
IC50 [3, 7]: 0.08 µM
IC50 [4, 7]: 0.01 µM
IC50 [5, 7]: 0.023 µM

MLLNVQTLI
IC50 [1, 7]: 0.0029 µM
IC50 [2, 7]: 0.00017 µM
IC50 [3, 7]: 0.00025 µM
IC50 [4, 7]: 0.00022 µM
IC50 [5, 7]: 0.216 µM

DVFRPLFDFV
IC50 [1, 7]: 1.65 µM
IC50 [2, 7]: 1.02 µM
IC50 [3, 7]: 2.57 µM
IC50 [4, 7]: 0.232 µM
IC50 [5, 7]: 0.18 µM

TMADLVYAL
IC50 ([1]; source organism: SARS-CoV1): 0.0065 µM
IC50 ([2]; source organism: SARS-CoV1): 0.00018 µM
IC50 ([3]; source organism: SARS-CoV1): 0.016 µM
IC50 ([4]; source organism: SARS-CoV1): 0.047 µM
IC50 ([5]; source organism: SARS-CoV1): 0.02 µM

SMYGKAFNHA
IC50 [1, 7]: 0.0097 µM
IC50 [2, 7]: 0.0066 µM
IC50 [3, 7]: 0.00093 µM
IC50 [4, 7]: 0.004 µM
IC50 [5, 7]: 0.163 µM

TIAVSVYGA
IC50 [1, 7]: 0.104 µM
IC50 [2, 7]: 0.025 µM
IC50 [3, 7]: 0.0099 µM
IC50 [4, 7]: 0.099 µM
IC50 [5, 7]: 0.032 µM

STYPGNTFV
IC50 [1, 7]: 0.064 µM
IC50 [2, 7]: 0.011 µM
IC50 [3, 7]: 0.00019 µM
IC50 [4, 7]: 0.00046 µM
IC50 [5, 7]: 0.00024 µM

FTNSQIFNI
IC50 [1, 7]: 0.009 µM
IC50 [2, 7]: 0.0069 µM
IC50 [3, 7]: 0.0071 µM
IC50 [4, 7]: 0.0048 µM
IC50 [5, 7]: 0.00023 µM

LVMDKNHAI
IC50 [1, 7]: 0.327 µM
IC50 [2, 7]: 0.019 µM
IC50 [3, 7]: 0.77 µM
IC50 [4, 7]: 0.103 µM
IC50 [5, 7]: 0.01 µM

IAACAMLLV
IC50 ([1]; source organism: SARS-CoV1): 0.567 µM
IC50 ([2]; source organism: SARS-CoV1): 0.32 µM
IC50 ([3]; source organism: SARS-CoV1): 0.387 µM
IC50 ([4]; source organism: SARS-CoV1): 0.131 µM
IC50 ([5]; source organism: SARS-CoV1): 0.389 µM

SIINHKFCNL
IC50 [1, 12]: 2.12 µM
IC50 [2, 12]: 0.247 µM
IC50 [3, 12]: 0.562 µM
IC50 [4, 12]: 1.02 µM
IC50 [5, 12]: 0.92 µM

YLGIFKNNDV
IC50 [1, 7]: 0.016 µM
IC50 [2, 7]: 0.015 µM
IC50 [3, 7]: 0.017 µM
IC50 [4, 7]: 0.285 µM
IC50 [5, 7]: 0.696 µM

LVFLWLLWPV
IC50 ([1]; source organism: SARS-CoV1): 0.0049 µM
IC50 ([2]; source organism: SARS-CoV1): 0.00093 µM
IC50 ([3]; source organism: SARS-CoV1): 0.0019 µM
IC50 ([4]; source organism: SARS-CoV1): 0.00056 µM
IC50 ([5]; source organism: SARS-CoV1): 0.018 µM

AAVIIMAINV
IC50 [1, 7]: 1.45 µM
IC50 [2, 7]: 1.29 µM
IC50 [3, 7]: 0.607 µM
IC50 [4, 7]: 0.446 µM
IC50 [5, 7]: 0.095 µM

GVCYYLLMHL
IC50 [1, 7]: 0.124 µM
IC50 [2, 7]: 0.096 µM
IC50 [3, 7]: 0.064 µM
IC50 [4, 7]: 0.128 µM
IC50 [5, 7]: 0.08 µM

PLISILMIFI
IC50 [1, 7]: 0.836 µM
IC50 [2, 7]: 0.433 µM
IC50 [3, 7]: 0.769 µM
IC50 [4, 7]: 2.42 µM
IC50 [5, 7]: 0.915 µM

SVDVDIYDAV
IC50 [1, 7]: 0.153 µM
IC50 [2, 7]: 0.00043 µM
IC50 [3, 7]: 0.0092 µM
IC50 [4, 7]: 0.0033 µM
IC50 [5, 7]: 0.00025 µM

FVTDYVHEGV
IC50 [1, 7]: 0.048 µM
IC50 [2, 7]: 0.024 µM
IC50 [3, 7]: 0.0017 µM
IC50 [4, 7]: 0.011 µM
IC50 [5, 7]: 0.0016 µM
